Reference: US20250277030A1, “ANTI-NAPI2B ANTIBODIES AND METHODS OF USE” (Zymeworks BC Inc., priority 2022, published 2025)

Key:
[1] = biological target: human sodium-dependent phosphate transporter 2B (NaPi2b) (human) (UniProt O95436); assay: flow cytometry competition on HEK293-6e cells expressing human NaPi2b; row antibody unlabeled at 100 µg/mL (the reference of the calculation); competitor: AF647-labeled v18992 (MX35) at 1 µg/mL
[2] = biological target: human sodium-dependent phosphate transporter 2B (NaPi2b) (human) (UniProt O95436); assay: flow cytometry competition on HEK293-6e cells expressing human NaPi2b; row antibody unlabeled at 100 µg/mL (the reference of the calculation); competitor: AF647-labeled v18993 (lifastuzumab) at 1 µg/mL
[3] = biological target: human sodium-dependent phosphate transporter 2B (NaPi2b) (human) (UniProt O95436); assay: flow cytometry competition on HEK293-6e cells expressing human NaPi2b; row antibody unlabeled at 100 µg/mL (the reference of the calculation); competitor: AF647-labeled v23855 at 1 µg/mL

Measured: % inhibition vs. irrelevant mAb

Chain of human sodium-dependent phosphate transporter 2B (NaPi2b) (human) (O95436 whole entry): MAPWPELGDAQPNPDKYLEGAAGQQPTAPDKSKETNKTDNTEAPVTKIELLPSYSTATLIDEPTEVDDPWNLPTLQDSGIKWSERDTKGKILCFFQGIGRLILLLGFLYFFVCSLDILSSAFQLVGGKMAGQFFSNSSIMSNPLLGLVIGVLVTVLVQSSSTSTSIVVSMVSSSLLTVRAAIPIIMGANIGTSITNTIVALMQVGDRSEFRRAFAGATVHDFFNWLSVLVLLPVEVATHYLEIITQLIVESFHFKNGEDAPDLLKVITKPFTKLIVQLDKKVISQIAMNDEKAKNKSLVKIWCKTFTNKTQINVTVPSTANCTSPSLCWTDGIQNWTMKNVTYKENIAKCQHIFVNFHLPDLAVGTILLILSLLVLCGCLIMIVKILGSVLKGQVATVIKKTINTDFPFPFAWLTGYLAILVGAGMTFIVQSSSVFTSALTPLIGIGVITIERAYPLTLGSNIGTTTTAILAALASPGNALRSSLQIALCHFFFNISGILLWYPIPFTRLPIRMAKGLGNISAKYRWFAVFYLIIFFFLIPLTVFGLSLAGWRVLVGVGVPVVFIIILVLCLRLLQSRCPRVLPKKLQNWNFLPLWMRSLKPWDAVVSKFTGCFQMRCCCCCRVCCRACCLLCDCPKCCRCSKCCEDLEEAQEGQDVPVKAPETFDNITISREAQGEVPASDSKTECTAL

v16955, palivizumab (anti-RSV) negative control (antibody)
0%: all assays above
